In article PMC8629192:

Biological target: SARS-CoV-2 spike protein (Wuhan-Hu-1), recombinant full-length spike with C-terminal histidine (SARS-CoV-2) (UniProt P0DTC2)
Test: ELISA

Sequence of LRRC15-Fc (Q8TF66 22-538): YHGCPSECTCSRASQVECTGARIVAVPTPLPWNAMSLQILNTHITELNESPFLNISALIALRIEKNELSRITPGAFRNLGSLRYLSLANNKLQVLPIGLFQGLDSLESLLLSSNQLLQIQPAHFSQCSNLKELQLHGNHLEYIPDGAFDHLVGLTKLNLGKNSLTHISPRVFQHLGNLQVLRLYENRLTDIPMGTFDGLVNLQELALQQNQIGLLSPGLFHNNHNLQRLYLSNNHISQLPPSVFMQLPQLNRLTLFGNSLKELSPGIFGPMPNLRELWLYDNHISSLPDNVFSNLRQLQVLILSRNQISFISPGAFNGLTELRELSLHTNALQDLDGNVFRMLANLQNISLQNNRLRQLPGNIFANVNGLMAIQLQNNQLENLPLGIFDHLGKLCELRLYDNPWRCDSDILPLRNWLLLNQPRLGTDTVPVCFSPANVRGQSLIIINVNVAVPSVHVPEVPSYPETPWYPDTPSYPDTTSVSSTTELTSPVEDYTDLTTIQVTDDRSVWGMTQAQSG

LRRC15-Fc (from UniProt Q8TF66) (Fc fusion)
Kd: 109 nM
